# Test results as given in paper PMC9400078.
# Key:
# [1] = molecular target: CelTOS N-terminal truncation mutant (Gly51–Asp196) (Plasmodium vivax); assay: SEC
# [2] = molecular target: CelTOS double mutant Lys122Asp, Leu164Asp (Plasmodium vivax); assay: SEC
Substance,stoichiometry N [1],stoichiometry N [2]
CelTOS N-terminal truncation mutant (Gly51–Asp196) (domain or fragment),2,
"CelTOS double mutant Lys122Asp, Leu164Asp (natural protein)",,2
